| Protein | KM (Factor X, P00742) | % of WT kcat/KM (Factor X (FX), P00742) | kcat (s^-1) of FX activation by FIXa variant in the Xase complex (FVIIIa, PC/PS vesicles, Ca2+), fluorogenic FXa read-out (Factor X (FX), P00742) | kcat/KM for FX activation (Xase: FVIIIa, PC/PS vesicles, Ca2+) (Factor X (FX), P00742) | % of WT kcat/KM (Factor X, P00742) | kcat/KM (Factor X, P00742) | kcat of FX activation by FIXa (Xase complex with FVIIIa, PC/PS vesicles, Ca2+) (Factor X (FX), P00742) | kcat (Factor X, P00742) | catalytic activity (kcat/KM) for activation of FX (Factor X (FX), P00742) | KM (Factor X (FX), P00742) |
| --- | --- | --- | --- | --- | --- | --- | --- | --- | --- | --- |
| FIXa-Y155F/T343R/R403E/E410N (protein) chain 1: YNSGKLEEFVQGNLERECMEEKCSFEEAREVFENTERTTEFWKQYVDGDQCESNPCLNGGSCKDDINSYECWCPFGFEGKNCELDVTCNIKNGRCEQFCKNSADNKVVCSCTEGYRLAENQKSCEPAVPFPCGRVSVSQTSKLTR chain 2: VVGGEDAKPGQFPWQVVLNGKVDAFCGGSIVNEKWIVTAAHCVETGVKITVVAGEHNIEETEHTEQKRNVIRIIPHHNYNAAINKYNHDIALLELDEPLVLNSYVTPICIADKEYTNIFLKFGSGYVSGWGRVFHKGRSALVLQYLRVPLVDRATCLRSTKFRIYNNMFCAGFHEGGRDSCQGDSGGPHVTEVEGTSFLTGIISWGEECAMKGKYGIYTKVSEYVNWIKNKTKLT | 0.0446 µM | 321% | 6.6 s⁻¹ | 1.5e+08 M⁻¹ s⁻¹ | – | – | – | – | – | – |
| FIXa-K247N/N249S/R318Y/R338E/R403E (protein) chain 1: YNSGKLEEFVQGNLERECMEEKCSFEEAREVFENTERTTEFWKQYVDGDQCESNPCLNGGSCKDDINSYECWCPFGFEGKNCELDVTCNIKNGRCEQFCKNSADNKVVCSCTEGYRLAENQKSCEPAVPFPCGRVSVSQTSKLTR chain 2: VVGGEDAKPGQFPWQVVLNGKVDAFCGGSIVNEKWIVTAAHCVETGVKITVVAGEHNIEETEHTEQNRSVIRIIPHHNYNAAINKYNHDIALLELDEPLVLNSYVTPICIADKEYTNIFLKFGSGYVSGWGRVFHKGYSALVLQYLRVPLVDRATCLESTKFTIYNNMFCAGFHEGGRDSCQGDSGGPHVTEVEGTSFLTGIISWGEECAMKGKYGIYTKVSEYVNWIKEKTKLT | – | – | – | – | 496% | 2.3e+08 M⁻¹ s⁻¹ | 10.5 s⁻¹ | – | – | – |
| FIXa-Y155F/K247N/N249S/R403E/E410N (protein) chain 1: YNSGKLEEFVQGNLERECMEEKCSFEEAREVFENTERTTEFWKQYVDGDQCESNPCLNGGSCKDDINSYECWCPFGFEGKNCELDVTCNIKNGRCEQFCKNSADNKVVCSCTEGYRLAENQKSCEPAVPFPCGRVSVSQTSKLTR chain 2: VVGGEDAKPGQFPWQVVLNGKVDAFCGGSIVNEKWIVTAAHCVETGVKITVVAGEHNIEETEHTEQNRSVIRIIPHHNYNAAINKYNHDIALLELDEPLVLNSYVTPICIADKEYTNIFLKFGSGYVSGWGRVFHKGRSALVLQYLRVPLVDRATCLRSTKFTIYNNMFCAGFHEGGRDSCQGDSGGPHVTEVEGTSFLTGIISWGEECAMKGKYGIYTKVSEYVNWIKNKTKLT | 0.131 µM | 53% | 2.7 s⁻¹ | 2.4e+07 M⁻¹ s⁻¹ | – | – | – | – | – | – |
| FIXa-Y155F/R318Y/T343R/E410N (protein) chain 1: YNSGKLEEFVQGNLERECMEEKCSFEEAREVFENTERTTEFWKQYVDGDQCESNPCLNGGSCKDDINSYECWCPFGFEGKNCELDVTCNIKNGRCEQFCKNSADNKVVCSCTEGYRLAENQKSCEPAVPFPCGRVSVSQTSKLTR chain 2: VVGGEDAKPGQFPWQVVLNGKVDAFCGGSIVNEKWIVTAAHCVETGVKITVVAGEHNIEETEHTEQKRNVIRIIPHHNYNAAINKYNHDIALLELDEPLVLNSYVTPICIADKEYTNIFLKFGSGYVSGWGRVFHKGYSALVLQYLRVPLVDRATCLRSTKFRIYNNMFCAGFHEGGRDSCQGDSGGPHVTEVEGTSFLTGIISWGEECAMKGKYGIYTKVSRYVNWIKNKTKLT | 0.0403 µM | 326% | 5 s⁻¹ | 1.5e+08 M⁻¹ s⁻¹ | – | – | – | – | – | – |
| FIXa-Y155F/K247N/N249S/R318Y/R338E/T343R (protein) chain 1: YNSGKLEEFVQGNLERECMEEKCSFEEAREVFENTERTTEFWKQYVDGDQCESNPCLNGGSCKDDINSYECWCPFGFEGKNCELDVTCNIKNGRCEQFCKNSADNKVVCSCTEGYRLAENQKSCEPAVPFPCGRVSVSQTSKLTR chain 2: VVGGEDAKPGQFPWQVVLNGKVDAFCGGSIVNEKWIVTAAHCVETGVKITVVAGEHNIEETEHTEQNRSVIRIIPHHNYNAAINKYNHDIALLELDEPLVLNSYVTPICIADKEYTNIFLKFGSGYVSGWGRVFHKGYSALVLQYLRVPLVDRATCLESTKFRIYNNMFCAGFHEGGRDSCQGDSGGPHVTEVEGTSFLTGIISWGEECAMKGKYGIYTKVSRYVNWIKEKTKLT | 0.0276 µM | 772% | 8.5 s⁻¹ | 3.6e+08 M⁻¹ s⁻¹ | – | – | – | – | – | – |
| FIXa-Y155F/K247N/N249S/T343R/E410N (protein) chain 1: YNSGKLEEFVQGNLERECMEEKCSFEEAREVFENTERTTEFWKQYVDGDQCESNPCLNGGSCKDDINSYECWCPFGFEGKNCELDVTCNIKNGRCEQFCKNSADNKVVCSCTEGYRLAENQKSCEPAVPFPCGRVSVSQTSKLTR chain 2: VVGGEDAKPGQFPWQVVLNGKVDAFCGGSIVNEKWIVTAAHCVETGVKITVVAGEHNIEETEHTEQNRSVIRIIPHHNYNAAINKYNHDIALLELDEPLVLNSYVTPICIADKEYTNIFLKFGSGYVSGWGRVFHKGRSALVLQYLRVPLVDRATCLRSTKFRIYNNMFCAGFHEGGRDSCQGDSGGPHVTEVEGTSFLTGIISWGEECAMKGKYGIYTKVSRYVNWIKNKTKLT | 0.0344 µM | 599% | 7.9 s⁻¹ | 2.8e+08 M⁻¹ s⁻¹ | – | – | – | – | – | – |
| FIXa-R318Y/R338E/T343R/E410N (protein) chain 1: YNSGKLEEFVQGNLERECMEEKCSFEEAREVFENTERTTEFWKQYVDGDQCESNPCLNGGSCKDDINSYECWCPFGFEGKNCELDVTCNIKNGRCEQFCKNSADNKVVCSCTEGYRLAENQKSCEPAVPFPCGRVSVSQTSKLTR chain 2: VVGGEDAKPGQFPWQVVLNGKVDAFCGGSIVNEKWIVTAAHCVETGVKITVVAGEHNIEETEHTEQKRNVIRIIPHHNYNAAINKYNHDIALLELDEPLVLNSYVTPICIADKEYTNIFLKFGSGYVSGWGRVFHKGYSALVLQYLRVPLVDRATCLESTKFRIYNNMFCAGFHEGGRDSCQGDSGGPHVTEVEGTSFLTGIISWGEECAMKGKYGIYTKVSRYVNWIKNKTKLT | – | – | – | – | 728% | 3.4e+08 M⁻¹ s⁻¹ | – | 4.9 s⁻¹ | displayed some of the greatest increases in catalytic activity | – |
| FIXa-Y155F/R338E/T343R/R403E/E410N (protein) chain 1: YNSGKLEEFVQGNLERECMEEKCSFEEAREVFENTERTTEFWKQYVDGDQCESNPCLNGGSCKDDINSYECWCPFGFEGKNCELDVTCNIKNGRCEQFCKNSADNKVVCSCTEGYRLAENQKSCEPAVPFPCGRVSVSQTSKLTR chain 2: VVGGEDAKPGQFPWQVVLNGKVDAFCGGSIVNEKWIVTAAHCVETGVKITVVAGEHNIEETEHTEQKRNVIRIIPHHNYNAAINKYNHDIALLELDEPLVLNSYVTPICIADKEYTNIFLKFGSGYVSGWGRVFHKGRSALVLQYLRVPLVDRATCLESTKFRIYNNMFCAGFHEGGRDSCQGDSGGPHVTEVEGTSFLTGIISWGEECAMKGKYGIYTKVSEYVNWIKNKTKLT | – | – | – | – | 524% | 2.4e+08 M⁻¹ s⁻¹ | – | 5.7 s⁻¹ | – | 0.0259 µM |
| FIXa-Y155F/K247N/N249S/R318Y/R338E/R403E (protein) chain 1: YNSGKLEEFVQGNLERECMEEKCSFEEAREVFENTERTTEFWKQYVDGDQCESNPCLNGGSCKDDINSYECWCPFGFEGKNCELDVTCNIKNGRCEQFCKNSADNKVVCSCTEGYRLAENQKSCEPAVPFPCGRVSVSQTSKLTR chain 2: VVGGEDAKPGQFPWQVVLNGKVDAFCGGSIVNEKWIVTAAHCVETGVKITVVAGEHNIEETEHTEQNRSVIRIIPHHNYNAAINKYNHDIALLELDEPLVLNSYVTPICIADKEYTNIFLKFGSGYVSGWGRVFHKGYSALVLQYLRVPLVDRATCLESTKFTIYNNMFCAGFHEGGRDSCQGDSGGPHVTEVEGTSFLTGIISWGEECAMKGKYGIYTKVSEYVNWIKEKTKLT | – | – | – | – | 206% | 9.5e+07 M⁻¹ s⁻¹ | 5.7 s⁻¹ | – | – | – |
| FIXa-K247N/N249S/R318Y/R338E/T343R (protein) chain 1: YNSGKLEEFVQGNLERECMEEKCSFEEAREVFENTERTTEFWKQYVDGDQCESNPCLNGGSCKDDINSYECWCPFGFEGKNCELDVTCNIKNGRCEQFCKNSADNKVVCSCTEGYRLAENQKSCEPAVPFPCGRVSVSQTSKLTR chain 2: VVGGEDAKPGQFPWQVVLNGKVDAFCGGSIVNEKWIVTAAHCVETGVKITVVAGEHNIEETEHTEQNRSVIRIIPHHNYNAAINKYNHDIALLELDEPLVLNSYVTPICIADKEYTNIFLKFGSGYVSGWGRVFHKGYSALVLQYLRVPLVDRATCLESTKFRIYNNMFCAGFHEGGRDSCQGDSGGPHVTEVEGTSFLTGIISWGEECAMKGKYGIYTKVSRYVNWIKEKTKLT | 0.0244 µM | 840% | 8 s⁻¹ | 3.9e+08 M⁻¹ s⁻¹ | – | – | – | – | – | – |
| FIXa-Y155F/R338E/T343R/E410N (protein) chain 1: YNSGKLEEFVQGNLERECMEEKCSFEEAREVFENTERTTEFWKQYVDGDQCESNPCLNGGSCKDDINSYECWCPFGFEGKNCELDVTCNIKNGRCEQFCKNSADNKVVCSCTEGYRLAENQKSCEPAVPFPCGRVSVSQTSKLTR chain 2: VVGGEDAKPGQFPWQVVLNGKVDAFCGGSIVNEKWIVTAAHCVETGVKITVVAGEHNIEETEHTEQKRNVIRIIPHHNYNAAINKYNHDIALLELDEPLVLNSYVTPICIADKEYTNIFLKFGSGYVSGWGRVFHKGRSALVLQYLRVPLVDRATCLESTKFRIYNNMFCAGFHEGGRDSCQGDSGGPHVTEVEGTSFLTGIISWGEECAMKGKYGIYTKVSRYVNWIKNKTKLT | 0.0224 µM | 761% | 6 s⁻¹ | 3.5e+08 M⁻¹ s⁻¹ | – | – | – | – | – | – |
| FIXa-Y155F/K247N/N249S/R318Y/R338E/T343R/R403E/E410N (protein) chain 1: YNSGKLEEFVQGNLERECMEEKCSFEEAREVFENTERTTEFWKQYVDGDQCESNPCLNGGSCKDDINSYECWCPFGFEGKNCELDVTCNIKNGRCEQFCKNSADNKVVCSCTEGYRLAENQKSCEPAVPFPCGRVSVSQTSKLTR chain 2: VVGGEDAKPGQFPWQVVLNGKVDAFCGGSIVNEKWIVTAAHCVETGVKITVVAGEHNIEETEHTEQNRSVIRIIPHHNYNAAINKYNHDIALLELDEPLVLNSYVTPICIADKEYTNIFLKFGSGYVSGWGRVFHKGYSALVLQYLRVPLVDRATCLESTKFRIYNNMFCAGFHEGGRDSCQGDSGGPHVTEVEGTSFLTGIISWGEECAMKGKYGIYTKVSEYVNWIKNKTKLT | – | – | – | – | 864% | 4e+08 M⁻¹ s⁻¹ | – | 9.7 s⁻¹ | – | 0.0257 µM |

Chain of Factor X, P00742 (P00742 whole entry, looked up): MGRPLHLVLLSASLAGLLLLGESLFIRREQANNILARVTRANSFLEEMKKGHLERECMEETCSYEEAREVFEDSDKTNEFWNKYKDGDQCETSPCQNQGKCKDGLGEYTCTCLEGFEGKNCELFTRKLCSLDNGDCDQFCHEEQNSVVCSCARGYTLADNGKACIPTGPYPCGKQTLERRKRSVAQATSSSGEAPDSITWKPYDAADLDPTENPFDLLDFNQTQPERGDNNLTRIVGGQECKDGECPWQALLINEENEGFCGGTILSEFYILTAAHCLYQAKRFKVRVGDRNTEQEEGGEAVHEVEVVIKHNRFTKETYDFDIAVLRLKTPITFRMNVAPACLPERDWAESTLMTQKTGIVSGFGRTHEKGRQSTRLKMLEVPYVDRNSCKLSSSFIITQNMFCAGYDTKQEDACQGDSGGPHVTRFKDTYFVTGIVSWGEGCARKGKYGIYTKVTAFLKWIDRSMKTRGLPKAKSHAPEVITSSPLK
Chain of Factor X (FX), P00742 (P00742 whole entry, looked up): as above
